These results are taken from patent US8703915B2, “Mutant proteins and methods for producing them” (Heptares Therapeutics Limited, priority 2009, dated 2014).

Entries after “also recorded” stand apart in the source; their conditions may differ.

For series [1], the target named is T1, A2A receptor (Homo sapiens, UniProt P29274, L48A).
T1 construct: transfected with 100 ng of pcDNA-3-A2A(2-316) pre-incubated with 0.3 μL of GeneJuice; expressed in transfected cells; host or cells: CHO cells, transient
Nature of the series: cAMP functional assay (HTRF), NECA stimulation of CHO cells over-expressing A2A receptor. Conditions: cAMP, relative to A2A-WT. It counts as cell-based. The procedure:
(§1) In order to stabilise an agonist-bound conformation, a systematic Alanine-scan was performed in order to identify mutations that may stabilise the A2A receptor bound to its full agonist NECA. In this A2A agonist-bound study, L2.46 (L48A) is the most stabilising single mutant. When NECA is bound to the solubilised receptor, removing the L48 side chain (in A2A-L48A) dramatically increases the thermostability of the ligand-receptor complex resulting in an increase of 14° C. over the wild type receptor in the detergent DDM (FIG. 5a). […] We evaluated the signalling property of the A2A receptor by over-expressing the receptor in CHO cells. A2A agonist stimulation triggers the signal transduction through the Gs-trimeric complex and increases the intracellular cAMP level. The increase in intracellular cAMP can be detected by and quantified by using an anti-cAMP Mab antibody competition assay. […] However the signalling efficacy is reduced to 30% (FIG. 6).
(§2) This assay takes advantage of Homogeneous Time-Resolved Fluorescence (HTRF) using cAMP labeled with the dye d2 in presence of an anti-cAMP Mab labeled with Cryptate. The method is based on a competitive immunoassay between cAMP produced by cells and the cAMP labeled with the dye d2. CHO cells were grown using Glutamax Ham's F12, 10% FBS in 96-well plates, clear bottom and Black wall (Costar). Cells were seeded at a density of 12500 cells per well, grown overnight, washed with PBS and then transfected with 100 ng of pcDNA-3-A2A(2-316) pre-incubated with 0.3 μL of GeneJuice (Novagen) per well. After 48 hours of receptor expression, the medium was removed, the cells were washed in PBS then stimulated by using different NECA concentrations, in the presence of Rolipram (50 μM) and Adenosine deaminase in a total volume of 50 μL for 30 minutes. Dilution was realised in Hamf's F12/cAMP-d2 conjugate according to the manufacturer protocol, without serum. […] The plate was incubated at room temperature for 1 hour and then read using the Pherastar 96-well time-resolved fluorescence plate reader (Ex 340 nm; Em 665/620 nm).
(Time-resolved FRET reads energy transfer from a long-lived donor to a nearby acceptor.)

The subject of series [2] is A2A receptor. The description is as above. It counts as cell-based, human. Conditions: intracellular cAMP, CHO cells. The procedure:
as §1, §2

For series [3], the system named is A2A receptor. Kind of series: Thermostability of A2A receptor in ZM241385 antagonist-bound state, solubilised in DDM. It counts as physicochemical, human. To be noted: ZM antagonist. The procedure:
as §1
A2AR-(2-316) expression was carried out by using the pRG/III-hs-MBP E. coli expression vector and DH5α cells. Cells were grown at 37° C. in 2 L flasks containing 500 mL of 2×TY medium supplemented with Ampicillin (100 μg/mL) and glucose (0.2% w/v). At OD600≈0.7, IPTG and theophylline were added at final concentrations respectively of 0.5 mM and 100 μM, and the temperature was reduced to 20° C. […]

For series [4], the system named is A2A receptor. Nature of the series: Thermostability of A2A receptor in NECA agonist-bound state, solubilised in DDM. The format is physicochemical, human. The procedure: as §1
(§3) A2AR-(2-316) expression was carried out by using the pRG/III-hs-MBP E. coli expression vector and DH5α cells. Cells were grown at 37° C. in 2 L flasks containing 500 mL of 2×TY medium supplemented with Ampicillin (100 μg/mL) and glucose (0.2% w/v). At OD600≈0.7, IPTG and theophylline were added at final concentrations respectively of 0.5 mM and 100 μM, and the temperature was reduced to 20° C. After 22 to 24 hours, cells were harvested in aliquots of 14 mL, centrifuged for 30 min and stored at −20° C. Both 5HT2C and M4 receptors were transiently expressed in HEK293T cells using GeneJuice transfection reagent used according to the manufacturers guidelines.
An aliquot of E. coli cells expressing wild type or mutant A2AR-(2-316) (14 mL) was thawed on ice and cells were resuspended in 500 μL of buffer A (50 mM Tris HCl mM/pH 7.4; 0.4 M NaCl, 250 μg/mL lysozyme (Sigma), 1 mg/mL DNAse I (Sigma), supplemented with complete EDTA-free Protease inhibitor cocktail (Roche)) and incubated 1 hour at 4° C. Samples were then sonicated 1 min at 4° C. using a cup-horn sonicator. […]

The target in series [5] is T2, M4 muscarinic receptor (Homo sapiens, UniProt P08173, L74A).
T2 construct: made in house; host or cells: HEK293T cells, transient
T2 sequence (P08173 1-479 L74A): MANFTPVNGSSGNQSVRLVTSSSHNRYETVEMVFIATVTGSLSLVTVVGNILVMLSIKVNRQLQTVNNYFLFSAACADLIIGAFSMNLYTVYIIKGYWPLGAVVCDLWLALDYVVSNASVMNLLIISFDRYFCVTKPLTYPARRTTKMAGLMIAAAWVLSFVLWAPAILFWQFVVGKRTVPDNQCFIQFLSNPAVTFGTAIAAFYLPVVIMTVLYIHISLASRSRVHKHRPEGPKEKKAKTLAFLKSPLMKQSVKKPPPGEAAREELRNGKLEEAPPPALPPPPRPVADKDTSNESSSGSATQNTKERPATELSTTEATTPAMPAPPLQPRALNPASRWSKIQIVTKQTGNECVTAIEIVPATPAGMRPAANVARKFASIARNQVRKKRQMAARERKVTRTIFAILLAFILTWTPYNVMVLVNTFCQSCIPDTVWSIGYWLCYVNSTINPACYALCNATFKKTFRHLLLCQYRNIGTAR
Kind of series: Thermostability of M4 muscarinic receptor bound to antagonist NMS. Conditions: antagonist NMS bound, data not shown. It counts as physicochemical. On the procedure:
(§4) In order to stabilise the M4 muscarinic receptors in antagonist conformation, a systematic alanine-scan was performed to identify mutations that stabilise receptors bound to the muscarinic antagonist, NMS. […] However, L71A (three residues N-terminal of the L2.46) was identified as a stabilising mutation. This mutation increases the Tm of this receptor by about 2° C. (FIG. 8a).
as §3
(§5) Transiently transfected mammalian cells expressing M4 were harvested about 40 hours post transfection and the receptors were solubilised in 50 mM Tris pH 7.5/250 mM NaCl/1% DDM/EDTA free protease inhibitor mix for 1 hour rotating at 4° C. The solubilised lysate was then cleared by centrifugation at 13000 rpm for 15 minutes at 4° C. The solubilised receptors were then purified on Ni-NTA beads and eluted with 100 mM histidine. The eluted receptor was used in radioligand binding assay. Thermostability of M4 was measured using 25 μL of purified receptor mixed with 95 μL of 12 nM [^3H]-NMS (final concentration of 10 nM). The sample was incubated for 60 min at 4° C., then 30 min at the specified temperature and then 30 min at 4° C. Receptor bound and free radioligand were separated using a 96-well plate gel filtration assay.

The target of series [6] is T3, M4 muscarinic receptor (Homo sapiens, UniProt P08173, L71A).
T3 construct: made in house; host or cells: HEK293T cells, transient
T3 sequence (P08173 1-479 L71A): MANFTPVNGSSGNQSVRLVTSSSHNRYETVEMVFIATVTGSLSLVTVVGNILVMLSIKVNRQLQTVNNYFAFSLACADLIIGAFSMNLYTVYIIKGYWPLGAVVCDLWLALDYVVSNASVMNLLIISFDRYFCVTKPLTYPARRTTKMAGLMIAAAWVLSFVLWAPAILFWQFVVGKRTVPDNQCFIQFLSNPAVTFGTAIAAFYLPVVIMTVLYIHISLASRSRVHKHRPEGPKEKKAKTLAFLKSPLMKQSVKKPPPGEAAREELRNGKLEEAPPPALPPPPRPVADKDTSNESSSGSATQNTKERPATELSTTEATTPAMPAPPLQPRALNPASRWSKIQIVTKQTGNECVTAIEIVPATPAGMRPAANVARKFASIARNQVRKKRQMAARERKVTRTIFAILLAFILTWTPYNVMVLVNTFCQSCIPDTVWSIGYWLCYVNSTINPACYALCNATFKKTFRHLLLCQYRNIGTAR
Described as above. It counts as physicochemical. Conditions: antagonist NMS bound, versus parent M4. On the procedure:
as §4, §3, §5

In series [7] the test system is M4 muscarinic receptor. The description is as above. It counts as physicochemical, human. Conditions: bound to antagonist NMS. The procedure: as §4, §3, §5

B1: A2A-L48A: human adenosine A2A receptor mutant, Leu 48 (L2.46) replaced by alanine (protein, UniProt P29274 1-412, looked up, variant L48A)
Adenosine receptor A2a: MPIMGSSVYITVELAIAVLAILGNVLVCWAVWLNSNLQNVTNYFVVSAAAADIAVGVLAIPFAITISTGFCAACHGCLFIACFVLVLTQSSIFSLLAIAIDRYIAIRIPLRYNGLVTGTRAKGIIAICWVLSFAIGLTPMLGWNNCGQPKEGKNHSQGCGEGQVACLFEDVVPMNYMVYFNFFACVLVPLLLMLGVYLRIFLAARRQLKQMESQPLPGERARSTLQKEVHAAKSLAIIVGLFALCWLPLHIINCFTFFCPDCSHAPLWLMYLAIVLSHTNSVVNPFIYAYRIREFRQTFRKIIRSHVLRQQEPFKAAGTSARVLAAHGSDGEQVSLRLNGHPPGVWANGSAPHPERRPNGYALGLVSGGSAQESQGNTGLPDVELLSHELKGVCPEPPGLDDPLAQDGAGVS
What is called pEC50 is −log10 of the EC50, conventionally taken in molar units. Read a high pEC50 as a low EC50. B1 came in with a signalling efficacy with A2A receptor [1] of 30%. The pEC50 with A2A receptor [2] is listed as 8.10±0.39. Besides, in the series on A2A receptor [3], the antagonist binding result was “abolishes the binding of the antagonist; also recorded: no binding detected”. The Tm in the series on A2A receptor [4] (NECA agonist-bound state (400 nM), solubilised in DDM) was 42.5±1.0 °C. Besides, in the series with A2A receptor [4] (NECA bound, detergent DDM), the “increase in thermostability over the wild type receptor” value was found to be 14 °C.

B2: M4 L2.46: M4 muscarinic receptor with L2.46 residue mutated to alanine (protein, UniProt P08173 1-479, looked up, variant L74A)
Muscarinic acetylcholine …: MANFTPVNGSSGNQSVRLVTSSSHNRYETVEMVFIATVTGSLSLVTVVGNILVMLSIKVNRQLQTVNNYFLFSAACADLIIGAFSMNLYTVYIIKGYWPLGAVVCDLWLALDYVVSNASVMNLLIISFDRYFCVTKPLTYPARRTTKMAGLMIAAAWVLSFVLWAPAILFWQFVVGKRTVPDNQCFIQFLSNPAVTFGTAIAAFYLPVVIMTVLYIHISLASRSRVHKHRPEGPKEKKAKTLAFLKSPLMKQSVKKPPPGEAAREELRNGKLEEAPPPALPPPPRPVADKDTSNESSSGSATQNTKERPATELSTTEATTPAMPAPPLQPRALNPASRWSKIQIVTKQTGNECVTAIEIVPATPAGMRPAANVARKFASIARNQVRKKRQMAARERKVTRTIFAILLAFILTWTPYNVMVLVNTFCQSCIPDTVWSIGYWLCYVNSTINPACYALCNATFKKTFRHLLLCQYRNIGTAR
As for B2, the “effect on thermal stability” value in the series with M4 muscarinic receptor [5] is “does not change the thermal stability of this receptor significantly”.

B3: L71A: M4 muscarinic receptor mutant L71A, three residues N-terminal of the L2.46 (protein, UniProt P08173 1-479, looked up, variant L71A)
Muscarinic acetylcholine …: MANFTPVNGSSGNQSVRLVTSSSHNRYETVEMVFIATVTGSLSLVTVVGNILVMLSIKVNRQLQTVNNYFAFSLACADLIIGAFSMNLYTVYIIKGYWPLGAVVCDLWLALDYVVSNASVMNLLIISFDRYFCVTKPLTYPARRTTKMAGLMIAAAWVLSFVLWAPAILFWQFVVGKRTVPDNQCFIQFLSNPAVTFGTAIAAFYLPVVIMTVLYIHISLASRSRVHKHRPEGPKEKKAKTLAFLKSPLMKQSVKKPPPGEAAREELRNGKLEEAPPPALPPPPRPVADKDTSNESSSGSATQNTKERPATELSTTEATTPAMPAPPLQPRALNPASRWSKIQIVTKQTGNECVTAIEIVPATPAGMRPAANVARKFASIARNQVRKKRQMAARERKVTRTIFAILLAFILTWTPYNVMVLVNTFCQSCIPDTVWSIGYWLCYVNSTINPACYALCNATFKKTFRHLLLCQYRNIGTAR
For the molecule B3, in the series with M4 muscarinic receptor [6], the “increase of Tm” value was “about 2 °C”. For the same molecule, the Tm with M4 muscarinic receptor [7] turned out to be 36.0 °C.
